Test results as given in patent US20220306713A1.

B1: anti-human PD-1 antibody 7A4D (antibody, from another filing, V domains shown)
VH: QIQLVQSGSELKKPGASVKVSCKASGYTFTNFGMNWVRQAPGQGLKWMGWISGYTREPTYAADFKGRFVISLDTSVSTAYLQISSLKAEDTAVYYCARDVFDYWGQGTLVTVSS
VL: DIVLTQSPASLAVSPGQRATITCRASESVDNYGYSFMNWFQQKPGQPPKLLIYRASNLESGVPARFSGSGSRTDFTLTINPVEADDTANYYCQQSNADPTFGQGTKLEIKR
B2: anti-human PD-L1 antibody 5G11 (antibody, from another filing, V domains shown)
VH: QVQLKQSGPGLVQPSQSLSITCTVSGFSLTTYGVHWVRQSPGKGLEWLGVIWRGVTTDYNAAFMSRLTITKDNSKSQVFFKMNSLQANDTAIYYCARLGFYAMDYWGQGTSVTVSS
VL: SIVMTQTPKFLLVSAGDRVTITCKASQSVSNDVAWYQQKPGQSPKLLIYYAANRYTGVPDRFTGSGYGTDFTFTISIVQAEDLAVYFCQQDYTSPYTFGGGTKLEIK

Tests used:
[1] = biological target: mouse PD-L1 on the surface of mouse tumor cell lines A20 and CT26 (mouse) (UniProt Q9EP73); experiment: flow cytometry, PE-labelled protein, 0.5 ug in 100 ul, A20 cells (high PD-L1), after Fc block; A20-Blank X-AMean 76.61
Chain of UniProt Q9EP73 (Q9EP73 19-290): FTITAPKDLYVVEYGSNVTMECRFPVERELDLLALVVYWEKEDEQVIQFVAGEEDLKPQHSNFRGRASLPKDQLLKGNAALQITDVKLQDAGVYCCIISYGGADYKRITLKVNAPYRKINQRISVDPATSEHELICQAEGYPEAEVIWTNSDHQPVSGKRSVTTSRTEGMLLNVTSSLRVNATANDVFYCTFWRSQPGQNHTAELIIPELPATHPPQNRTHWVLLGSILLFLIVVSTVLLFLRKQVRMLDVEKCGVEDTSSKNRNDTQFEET

[2] = biological target: mouse PD-L1 on the surface of mouse tumor cell lines A20 and CT26 (mouse) (UniProt Q9EP73); experiment: flow cytometry, PE-labelled protein, 2.5 ug in 100 ul, A20 cells (high PD-L1), after Fc block; A20-Blank X-AMean 76.61
[3] = biological target: mouse PD-L1 on the surface of mouse tumor cell lines A20 and CT26 (mouse) (UniProt Q9EP73); experiment: flow cytometry, PE-labelled protein, 2.5 ug in 100 ul, CT26 cells (low PD-L1), after Fc block; CT26-Blank X-AMean printed 254.50
[4] = biological target: recombinant human PD-1 antigen (human) (UniProt Q15116); experiment: SPR (Biacore T200), antibody captured on anti-human IgG Fc CM5 chip, recombinant human PD-1 as analyte, 1:1 Langmuir fit
Chain of UniProt Q15116 (Q15116 25-167 limits assumed): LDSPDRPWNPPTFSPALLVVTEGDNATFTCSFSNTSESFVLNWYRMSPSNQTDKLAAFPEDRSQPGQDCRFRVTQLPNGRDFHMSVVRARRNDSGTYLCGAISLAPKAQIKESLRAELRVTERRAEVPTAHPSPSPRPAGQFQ

[5] = biological target: recombinant human PD-L1 antigen (human) (UniProt Q9NZQ7); experiment: SPR (Biacore T200), antibody captured on anti-human IgG Fc CM5 chip, recombinant human PD-L1 as analyte, 1:1 Langmuir fit
Chain of UniProt Q9NZQ7 (Q9NZQ7 19-238 limits assumed): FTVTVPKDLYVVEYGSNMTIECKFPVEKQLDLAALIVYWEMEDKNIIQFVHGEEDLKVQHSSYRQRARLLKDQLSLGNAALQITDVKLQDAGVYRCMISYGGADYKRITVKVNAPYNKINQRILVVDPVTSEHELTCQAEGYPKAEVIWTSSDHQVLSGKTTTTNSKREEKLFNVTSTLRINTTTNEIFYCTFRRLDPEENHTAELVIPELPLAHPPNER

| Molecule | X-AMean [1] | X-AMean [2] | X-AMean [3] | other results |
| --- | --- | --- | --- | --- |
| anti-PD-L1(10F.9G2) antibody-HC-mIL-10 fusion protein (from UniProt P18893 19-178) | 1830 | 5930 | 590 | – |
| rat-anti-mouse PD-L1 monoclonal antibody 10F.9G2 | 949 | 4990 | 885 | – |
| B1 | – | – | – | Kd [4]: 830 pM; koff [4]: 0.000806 s⁻¹; kon [4]: 974000 M⁻¹ s⁻¹ |
| B2 | – | – | – | Kd [5]: 290 pM; koff [5]: 0.000779 s⁻¹; kon [5]: 2.65e+06 M⁻¹ s⁻¹ |
